The values below come from FireProtDB.

The conditions of this data set: whole UniProt chain shown.
Setting [1] is: Niallia circulans, pH 6, Thermal, DSC, HEPES 100 mM, reversible: No.
The mark [2] stands for this setting: Niallia circulans, pH 8.5, Thermal, DSC, HEPES 100 mM, reversible: No.
[3] abbreviates: Niallia circulans, pH 10, Thermal, DSC, CHESS 100 mM, reversible: No.
Setting [4] is: Manduca sexta, pH 7, 25 °C, GdnHCl, CD, Potassium phosphate 50 mM, reversible: yes.
[5] abbreviates: Notophthalmus viridescens, pH 7.2, 25 °C, GdnHCl, CD, Phosphate 100 mM.
Setting [6] is: Pseudomonas aeruginosa (strain ATCC 15692 / DSM 22644 / CIP 104116 / JCM 14847 / LMG 12228 / 1C / PRS 101 / PAO1), pH 7, Thermal, CD, KH2PO4-NaOH 10 mM, reversible: yes.
Where [7] appears, read: Mus musculus, pH 4, 25 °C, GdnHCl, CD, Sodium acetate 10 mM, reversible: yes.
[8] abbreviates: Mus musculus, pH 4, 25 °C, Urea, CD, Sodium acetate 10 mM, reversible: yes.
The mark [9] stands for this setting: Mus musculus, pH 7.4, 25 °C, Urea, CD, Tris-HCl 10 mM, reversible: yes.

B1: Phosphoserine aminotransferase wild type, Q59196 (protein)
chain: MSKRAYNFNAGPAALPLEVLERAQAEFVDYQHTGMSIMEMSHRGAVYEAVHNEAQARLLALLGNPTGYKVLFIQGGASTQFAMIPMNFLKEGQTANYVMTGSWASKALKEAKLIGDTHVAASSEASNYMTLPKLQEIQLQDNAAYLHLTSNETIEGAQFKAFPDTGSVPLIGDMSSDILSRPFDLNQFGLVYAGAQKNLGPSGVTVVIVREDLVAESPKHLPTMLRYDTYVKNNSLYNTPPSFGIYMVNEVLKWIEERGGLEGVQQANRKKASLIYDAIDQSGGFYRGCVDVDSRSDMNITFRLASEELEKEFVKASEQEGFVGLKGHRSVGGLRASIYNAVPYESCEALVQFMEHFKRSRG
As usually defined, the Tm is the temperature at which the thermal transition is half complete. As for B1, the Tm was 71 °C under setting [1], 58.4 °C under setting [2] and 58 °C under setting [3]. The “unfolding enthalpy (calorimetric)” value under setting [1] amounted to 288 kcal/mol, the “unfolding enthalpy (calorimetric)” value under setting [2] was 121 kcal/mol and the “unfolding enthalpy (calorimetric)” value under setting [3] is 124 kcal/mol.

B2: Serine proteinase inhibitor IA-1 wild type, Q7M4T6 (protein)
chain: SAGKFIVIFKNDVSEDKIRETKDEVIAEGGTITNEYNMPGMKGFAGELTPQSLTKFQGLQGDLIDSIEEDGIVTTQ
For the protein B2, the melting temperature (Tm) (Pleurotus ostreatus, pH 7, Thermal, CD, sodium phosphate 50 mM) turned out to be 59 °C.

B3: Apolipophorin-3 wild type, P13276 (protein)
chain: MAAKFVVVLAACVALSHSAMVRRDAPAGGNAFEEMEKHAKEFQKTFSEQFNSLVNSKNTQDFNKALKDGSDSVLQQLSAFSSSLQGAISDANGKAKEALEQARQNVEKTAEELRKAHPDVEKEANAFKDKLQAAVQTTVQESQKLAKEVASNMEETNKKLAPKIKQAYDDFVKHAEEVQKKLHEAATKQ
B3: under setting [4], the denaturant m value was 3.65 kcal/mol/M, the “denaturant midpoint (higher = more stable)” value (shortened to “denaturant midpoint”) amounted to 0.36 M and the unfolding free energy amounted to 1.29 kcal/mol. Moreover, where the note is “Manduca sexta, pH 7, Thermal, CD, Potassium phosphate 50 mM, reversible: yes”, the Tm turned out to be 52 °C.

B4: Fibroblast growth factor 1 wild type, Q7SIF8 (protein)
chain: QKPKLLYCSNGGYFLRIFPDGKVDGTRDRSDPYIQLQFYAESVGEVYIKSLETGQYLAMDSDGQLYASQSPSEECLFLERLEENNYNTYKSKVHADKDWFVGIKKNGKTKPGSRTHFGQKAILFLPLPVSSD
Regarding B4, under setting [5], the denaturant m value was determined as 3.8 kcal/mol/M, the “denaturant midpoint” value stood at 1.6 M and the unfolding free energy turned out to be 6.1 kcal/mol.

B5: Lipase B wild type, P41365 (protein)
chain: MKLLSLTGVAGVLATCVAATPLVKRLPSGSDPAFSQPKSVLDAGLTCQGASPSSVSKPILLVPGTGTTGPQSFDSNWIPLSTQLGYTPCWISPPPFMLNDTQVNTEYMVNAITALYAGSGNNKLPVLTWSQGGLVAQWGLTFFPSIRSKVDRLMAFAPDYKGTVLAGPLDALAVSAPSVWQQTTGSALTTALRNAGGLTQIVPTTNLYSATDEIVQPQVSNSPLDSSYLFNGKNVQAQAVCGPLFVIDHAGSLTSQFSYVVGRSALRSTTGQARSADYGITDCNPLPANDLTPEQKVAAAALLAPAAAAIVAGPKQNCEPDLMPYARPFAVGKRTCSGIVTP
Regarding B5, the Tm stood at 57.7 °C (Pseudozyma antarctica, pH 7, Thermal, CD, Tris-HCl 50 mM, reversible: No) and 54.8 °C (Pseudozyma antarctica, pH 7, Thermal, Differential Scanning Fluorimetry, HEPES 10mM).

B6: Cytochrome c-551 wild type, P00099 (protein)
chain: MKPYALLSLLATGTLLAQGAWAEDPEVLFKNKGCVACHAIDTKMVGPAYKDVAAKFAGQAGAEAELAQRIKNGSQGVWGPIPMPPNAVSDDEAQTLAKWVLSQK
As to B6, under setting [6], the Tm stood at 56 °C and the “unfolding enthalpy (van 't Hoff)” value stood at 39.5 kcal/mol.

B7: cAMP-dependent protein kinase type I-beta regulatory subunit wild type, P12849 (protein)
chain: MASPSCFHSEDEDSLKGCEMYVQKHGIQQVLKECIVHLCVAKPDRPLRFLREHFEKLEKEENRQILARQKSNSQCDSHDEEISPTPPNPVVKARRRRGGVSAEVYTEEDAVSYVRKVIPKDYKTMTALAKAISKNVLFSHLDDNERSDIFDAMFPVTHIGGETVIQQGNEGDNFYVIDQGEVDVYVNGEWVTNISEGGSFGELALIYGTPRAATVKAKTDLKLWGIDRDSYRRILMGSTLRKRKMYEEFLSKVSILESLEKWERLTVADALEPVQFEDGEKIVVQGEPGDDFYIITEGTASVLQRRSPNEEYVEVGRLGPSDYFGEIALLLNRPRAATVVARGPLKCVKLDRPRFERVLGPCSEILKRNIQRYNSFISLTV
Consider B7, for which the unfolding free energy is, setting by setting: (Mus musculus, pH 7, 23 °C, GdnHCl, Fluorescence, MOPS 5 mM, KCl 100 mM, reversible: yes) 7.2 kcal/mol; (Mus musculus, pH 7, 23 °C, Urea, Fluorescence, MOPS 5 mM, KCl 100 mM, reversible: yes) 7 kcal/mol.

B8: Interleukin-6 wild type, P08505 (protein)
chain: MKFLSARDFHPVAFLGLMLVTTTAFPTSQVRRGDFTEDTTPNRPVYTTSQVGGLITHVLWEIVEMRKELCNGNSDCMNNDDALAENNLKLPEIQRNDGCYQTGYNQEICLLKISSGLLEYHSYLEYMKNNLKDNKKDKARVLQRDTETLIHIFNQEVKDLHKIVLPTPISNALLTDKLESQKEWLRTKTIQFILKSLEEFLKVTLRSTRQT
With B8, the denaturant m value worked out at 0.7 kcal/mol/M under setting [7], 1.9 kcal/mol/M under setting [8] and 0.7 kcal/mol/M under setting [9]. The “denaturant midpoint” value under setting [7] stood at 2.7 M, the “denaturant midpoint” value under setting [8] came to 3.6 M and the “denaturant midpoint” value under setting [9] was 4.8 M. For the same protein, the unfolding free energy is, setting by setting: under setting [7], 1.8 kcal/mol; under setting [8], 6.9 kcal/mol; (Mus musculus, pH 4, 25 °C, Urea, CD, Sodium acetate 10 mM) 6.8 kcal/mol; (Mus musculus, pH 4, 25 °C, Urea, Fluorescence, sodium acetate 0.5 M) 6 kcal/mol; under setting [9], 3.4 kcal/mol.
